Measured values taken from the supplement of paper PMC7877785.
± gives the uncertainty stated by the source.

Test: self-splicing fitness, log relative to wild type (ln ratio); higher = more splicing; Tetrahymena group I intron in knt gene, E. coli kanamycin selection, DiMSum; sequences stand for … in CUCUCU…GGAGGGAAAAGUUAUCAGGCAUGCACCUGGUAGCUAGUCUUUAAACCAAUAGAUUGCAUCGGUUUAAAAGGCAAGACCGUCAAAUUGCGGGAAAGGGGUCAACAGCCGUUCAGUACCAAGUCUCAGGGGAAACUUUGAGAUGGCCUUGCAAAGGGUAUGGUAAUAAGCUGACGGACAUGGUCCUAACCACGCAGCCAAGUCCUAAGUCAACAGAUCUUCUGUUGAUAUGGAUGCAGUUCACAGACUAAAUGUCGGUCGGGGAAGAUGUAUUCUUCUCAUAAGAUAUAGUCGGACCUCUCCUUAAUGGGAGCUAGCGGAUGAAGUGAUGCAACACUGGAGCCGCUGGGAACUAAUUUGUAUGCGAAAGUAUAUUGAUUAGUUUUGGAGUACUCGUGGUCG
Method in brief: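 Pooled colonies went to amplicon sequencing on an Illumina HiSeq 2500 after six replicate transformations. The plates were LB agar with 100 μg/mL carbenicillin, 50 μM IPTG and 0.2% rhamnose, with or without 25 μg/mL kanamycin, incubated overnight at 37°C or 30°C. The E. coli BL21(DE3) library had all eight P1ex-region intron nucleotides randomised, the intron placed in the knt kanamycin-resistance gene on pET-22b(+). DiMSum fitness is the error-weighted combination of replicate fold changes, kanamycin against none, normalised to wild type.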

CGAAAGCAAUAUUACGAGCC
self-splicing fitness (ln) (30 °C): -2.18 ± 0.32 | self-splicing fitness (ln) (37 °C): -1.19 ± 0.3

GUCCAGCAAUAUUACGUGCU
self-splicing fitness (ln) (30 °C): -4.08 ± 0.46 | self-splicing fitness (ln) (37 °C): 0.0205 ± 0.18

GUGUAGCAAUAUUACGGAUG
self-splicing fitness (ln) (30 °C): -3.29 ± 0.41 | self-splicing fitness (ln) (37 °C): -0.59 ± 0.35

GACAAGCAAUAUUACGGAUG
self-splicing fitness (ln) (30 °C): -2.92 ± 0.11 | self-splicing fitness (ln) (37 °C): -1.75 ± 0.12

CCGAAGCAAUAUUACGUACC
self-splicing fitness (ln) (30 °C): -3.47 ± 0.16 | self-splicing fitness (ln) (37 °C): -2.5 ± 0.21

GAUGAGCAAUAUUACGAUCG
self-splicing fitness (ln) (30 °C): -1.9 ± 0.35 | self-splicing fitness (ln) (37 °C): -2.32 ± 0.24

AGAGAGCAAUAUUACGCGUG
self-splicing fitness (ln) (30 °C): -3.83 ± 0.36 | self-splicing fitness (ln) (37 °C): -1.44 ± 0.18

CGAUAGCAAUAUUACGUAAC
self-splicing fitness (ln) (30 °C): -2.84 ± 0.17 | self-splicing fitness (ln) (37 °C): -3.84 ± 0.46

UACUAGCAAUAUUACGAAGU
self-splicing fitness (ln) (30 °C): -3.85 ± 0.42 | self-splicing fitness (ln) (37 °C): -2.32 ± 0.41

AAUGAGCAAUAUUACGUCGA
self-splicing fitness (ln) (30 °C): -3.56 ± 0.21 | self-splicing fitness (ln) (37 °C): -2.84 ± 0.23

AUUCAGCAAUAUUACGCGAA
self-splicing fitness (ln) (30 °C): -1.9 ± 0.15 | self-splicing fitness (ln) (37 °C): -1.73 ± 0.17

UGUAAGCAAUAUUACGAGUG
self-splicing fitness (ln) (30 °C): -2.02 ± 0.13 | self-splicing fitness (ln) (37 °C): -0.484 ± 0.14

GUUAAGCAAUAUUACGUAAC
self-splicing fitness (ln) (30 °C): -3.15 ± 0.44

CCUAAGCAAUAUUACGACAG
self-splicing fitness (ln) (30 °C): -0.604 ± 0.081 | self-splicing fitness (ln) (37 °C): -1 ± 0.11

UCGAAGCAAUAUUACGAGGA
self-splicing fitness (ln) (30 °C): -3.21 ± 0.39 | self-splicing fitness (ln) (37 °C): -1.19 ± 0.27

UUCUAGCAAUAUUACGGUAU
self-splicing fitness (ln) (37 °C): -0.561 ± 0.24

CCUGAGCAAUAUUACGAGUC
self-splicing fitness (ln) (37 °C): -2.36 ± 0.34

GUCCAGCAAUAUUACGACAC
self-splicing fitness (ln) (30 °C): 1.02 ± 0.18 | self-splicing fitness (ln) (37 °C): 0.572 ± 0.24

GGUUAGCAAUAUUACGCACG
self-splicing fitness (ln) (30 °C): -0.656 ± 0.11 | self-splicing fitness (ln) (37 °C): -0.507 ± 0.13

AUCUAGCAAUAUUACGUAAA
self-splicing fitness (ln) (30 °C): -2.41 ± 0.15 | self-splicing fitness (ln) (37 °C): -1.29 ± 0.14

UUGCAGCAAUAUUACGGGAC
self-splicing fitness (ln) (30 °C): -3.01 ± 0.25 | self-splicing fitness (ln) (37 °C): -2.37 ± 0.39

GUCUAGCAAUAUUACGACAU
self-splicing fitness (ln) (30 °C): -0.643 ± 0.014 | self-splicing fitness (ln) (37 °C): -0.146 ± 0.032

AGUAAGCAAUAUUACGGAGC
self-splicing fitness (ln) (30 °C): -2.93 ± 0.37

AGGAAGCAAUAUUACGACUG
self-splicing fitness (ln) (30 °C): -0.619 ± 0.094 | self-splicing fitness (ln) (37 °C): 0.0357 ± 0.1

ACCUAGCAAUAUUACGCCCU
self-splicing fitness (ln) (30 °C): -0.142 ± 0.12 | self-splicing fitness (ln) (37 °C): -0.462 ± 0.14

CUAGAGCAAUAUUACGUCUC
self-splicing fitness (ln) (30 °C): -3.75 ± 0.2 | self-splicing fitness (ln) (37 °C): -2.76 ± 0.25

GCGGAGCAAUAUUACGGGCC
self-splicing fitness (ln) (30 °C): -2.57 ± 0.42

CUGAAGCAAUAUUACGUAGU
self-splicing fitness (ln) (30 °C): -4.3 ± 0.23 | self-splicing fitness (ln) (37 °C): -3.22 ± 0.26

UCUUAGCAAUAUUACGCAAG
self-splicing fitness (ln) (30 °C): -1.34 ± 0.2 | self-splicing fitness (ln) (37 °C): -2.48 ± 0.28

CAUAAGCAAUAUUACGCCAU
self-splicing fitness (ln) (30 °C): -1.36 ± 0.15 | self-splicing fitness (ln) (37 °C): -2.6 ± 0.34

CAAAAGCAAUAUUACGAUGA
self-splicing fitness (ln) (30 °C): -0.319 ± 0.074 | self-splicing fitness (ln) (37 °C): -0.167 ± 0.075

GGUAAGCAAUAUUACGCAAU
self-splicing fitness (ln) (30 °C): -1.38 ± 0.11 | self-splicing fitness (ln) (37 °C): -1.44 ± 0.14

AAUCAGCAAUAUUACGAUCC
self-splicing fitness (ln) (30 °C): 0.138 ± 0.13 | self-splicing fitness (ln) (37 °C): -0.291 ± 0.17

AAAAAGCAAUAUUACGCGUG
self-splicing fitness (ln) (30 °C): -1.12 ± 0.064 | self-splicing fitness (ln) (37 °C): -1.18 ± 0.076

CAUUAGCAAUAUUACGCAGG
self-splicing fitness (ln) (30 °C): -2.18 ± 0.12 | self-splicing fitness (ln) (37 °C): -1.53 ± 0.13

UUCCAGCAAUAUUACGGGUA
self-splicing fitness (ln) (30 °C): -0.292 ± 0.08 | self-splicing fitness (ln) (37 °C): 0.0398 ± 0.088

UUGUAGCAAUAUUACGAAGU
self-splicing fitness (ln) (30 °C): -2.54 ± 0.28 | self-splicing fitness (ln) (37 °C): -2.56 ± 0.48

UACAAGCAAUAUUACGGGCC
self-splicing fitness (ln) (30 °C): -3.08 ± 0.23 | self-splicing fitness (ln) (37 °C): -2.55 ± 0.22

CUAGAGCAAUAUUACGGUAA
self-splicing fitness (ln) (30 °C): -3.52 ± 0.29 | self-splicing fitness (ln) (37 °C): -1.5 ± 0.16

CUCUAGCAAUAUUACGAACG
self-splicing fitness (ln) (30 °C): -0.887 ± 0.097 | self-splicing fitness (ln) (37 °C): -0.112 ± 0.11

UCGAAGCAAUAUUACGGUAU
self-splicing fitness (ln) (30 °C): -3.58 ± 0.16 | self-splicing fitness (ln) (37 °C): -1.73 ± 0.14

ACGGAGCAAUAUUACGUUCA
self-splicing fitness (ln) (30 °C): -1.94 ± 0.18 | self-splicing fitness (ln) (37 °C): -0.749 ± 0.13

CGAUAGCAAUAUUACGUGGA
self-splicing fitness (ln) (30 °C): -1.9 ± 0.24 | self-splicing fitness (ln) (37 °C): -2.62 ± 0.31

UUUCAGCAAUAUUACGUCUU
self-splicing fitness (ln) (30 °C): -2.52 ± 0.17 | self-splicing fitness (ln) (37 °C): -1.36 ± 0.13

GCGCAGCAAUAUUACGGAGC
self-splicing fitness (ln) (30 °C): -2.35 ± 0.26 | self-splicing fitness (ln) (37 °C): -2.38 ± 0.49

CAACAGCAAUAUUACGAAAA
self-splicing fitness (ln) (30 °C): -2.73 ± 0.3 | self-splicing fitness (ln) (37 °C): -1.38 ± 0.26

GGGCAGCAAUAUUACGGAGU
self-splicing fitness (ln) (30 °C): -2.8 ± 0.12 | self-splicing fitness (ln) (37 °C): -1.78 ± 0.11

GGAUAGCAAUAUUACGAUGG
self-splicing fitness (ln) (30 °C): -1.27 ± 0.38

AGCGAGCAAUAUUACGCAUC
self-splicing fitness (ln) (30 °C): -2.51 ± 0.36 | self-splicing fitness (ln) (37 °C): -2.33 ± 0.33
